{
  "source": "paper PMC9926490",
  "about": "“Structural Basis for Cyclosporin Isoform-Specific Inhibition of Cyclophilins from Toxoplasma gondii” (ACS Infectious Diseases, 2023)",
  "substrate": "C[C@H](NC(=O)CCC(=O)O)C(=O)N[C@@H](C)C(=O)N1CCC[C@H]1C(=O)N[C@@H](Cc1ccccc1)C(=O)Nc1ccc([N+](=O)[O-])cc1",
  "test": "purified protein, by the assay type",
  "type": "biochemical, Toxoplasma gondii",
  "details": "other: substrate AAPF, 0 °C, pH 8.0",
  "experimental": "A trans-isomer is formed by Cyp, which is selectively cleaved by chymotrypsin, producing 4-nitroaniline, a yellow-colored product that can be measured spectrophotometrically.\nThe assay was performed in 50 mM Hepes, pH 8, and 100 mM NaCl at 0 °C. […] Once the temperature reached 0 °C, chymotrypsin solution, dissolved in HCl 1 mM, was added at 1.8 mg mL^–1 to start the reaction.\nSuccessively, Cyp was added in large excess to enhance the cis-to-trans isomerization. The cis population was estimated by the difference between the final and the initial absorbance.\nFor all of the experiments, the slope of the catalyzed reaction was corrected for the spontaneous thermal cis–trans isomerization in the presence of the only chymotrypsin.\nAll measurements were repeated as triplicate, and the error was calculated as the mean standard error of the three measurements. The error associated with the parameter kcat/Km was propagated in agreement with the following equation eq 1 [drawing 1]",
  "data": [
    {"protein": "TgCyp18.4 (Toxoplasma gondii VEG) (protein) MSVTIKTNLGDLKAELYCQQAPKTCKNFLALCASDYYNGTRFHRNIKGFAIQGGDPTGTGKGGESIYGGLFEDEFVSSLKHDRRGILSMANQGKPNTNGSQFFITYCRQPHLNGVYSVFGRLIDGMDTLDKMEREPVGRKNRPENDIIIEQVIIHANPIAEMDQL", "values": [
      {"measurement": "Km", "result": "286 ± 39", "unit": "µM"},
      {"measurement": "kcat", "result": "2.8 ± 0.4", "unit": "s⁻¹"},
      {"measurement": "kcat/Km", "result": "10000 ± 2000", "unit": "M⁻¹ s⁻¹"}
    ]}
  ]
}
